Biological target: T1, purified human factor D (from human plasma) (human, UniProt P00746 26-253)
T1 construct: mature; Also used here for the native factor D of normal human serum in the functional assays; also called human fD; fD
Assay: SPR (Biacore-2000), purified human factor D amine-coupled to CM4 chip
Description: FIG. 8 depicts the results of antigen binding affinity measurements for 1F10-5 mAb using Biacore. Purified human factor D was coupled onto CM4 chip using the amine coupling method. Biacore analysis was performed on a Biacore-2000 instrument. The chip was regenerated between each binding using 50 mM NaOH.

T1 sequence (P00746 26-253): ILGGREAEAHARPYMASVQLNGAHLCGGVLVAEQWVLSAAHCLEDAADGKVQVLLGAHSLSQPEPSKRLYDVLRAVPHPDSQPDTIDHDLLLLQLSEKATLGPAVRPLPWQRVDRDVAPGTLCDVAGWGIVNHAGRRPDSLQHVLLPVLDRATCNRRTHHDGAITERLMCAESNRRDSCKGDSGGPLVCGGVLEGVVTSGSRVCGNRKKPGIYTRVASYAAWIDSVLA

- Kd: 0.15 nM
B1: mAb 1F10-5 (murine anti-human factor D monoclonal antibody) (antibody, V domains shown)
VH: QIQLVQSGPELKKPGETVKISCKASGYTFTNFEMNWVKQAPGQGLNWMGCINTYTGDPIYADDFRGRFAFSLETSASTAYLQINNLKNEDMATYFCSREGGGDYWGQGTTLTVSS
VL: SIVMTQTPKFLLVSAGDRVTITCKASQSVTNDVAWYQQKPGQSPRLLIYHASNRYTGVPERFTGSGYGTDFTFTINTVQAEDLAVYFCQQDYSSPRTFGGGTKLEIKR
notes: Mouse hybridoma antibody; also called 1F10-mAb; IF10-5

Reference: US20230032737A1 (University of Pennsylvania, published 2023)
